From publication PMC12457637, “An aptamer-drug conjugate for promising cancer therapy with comprehensive evaluation from rodents to non-human primates” (Signal Transduction and Targeted Therapy, 2025)
Read-outs that look alike come from different tables or passages of the source. Non-standard residues stand in square brackets, D forms with d. Residues, ends and D or L forms follow the SMILES beside them. *: point of attachment. Dolaproine = CO[C@@H]([C@@H]1CCCN1)[C@@H](C)C(=O)O; Dil = CC[C@H](C)[C@H](NC)[C@@H](CC(=O)O)OC; X1 = C[C@@H](N*)[C@@H](O)c1ccccc1; NMeV = CN[C@H](C(=O)O)C(C)C

Key:
[1] = design: method as in PMID 31877330; conditions: cited from earlier work
MDA-MB-468 xenograft = experiment: Antitumor efficacy, MDA-MB-468 xenograft; format: in vivo, mice; conditions: free MMAE at equivalent dose (0.359 mg/kg i.v.)
Experimental: (§1) In vivo therapeutic evaluations were performed to evaluate the antitumor effects of the PTK7-targeted ApDC Sgc8c-M with comparisons made between the chemotherapeutic drug paclitaxel and the ApDC’s toxic payload MMAE in most cases. […] All tumor models were established on female BALB/c nude mice. Briefly, a 50 μL suspension of tumor cells (SUM159: 5 × 10^6, MDA-MB-468: 1 × 10^7, MIA PaCa-2: 5 × 10^6, OVCAR3: 5 × 10^6, HT-29: 5 × 10^6, NCI-H1975: 5 × 10^6, A549: 5 × 10^6) mixed with an equal volume of Matrigel (BD) was injected s.c. into the right hind flank region of mice. For the TNBC PDX and pancreatic cancer PDX F4 and F5 models, 3–5 mm^3 of tumor fragments were implanted into the right hind flank region of mice. When tumor sizes reached approximately 100 mm^3–300 mm^3, the mice were randomly divided into control and treatment groups. Sgc8c-M (i.v.), paclitaxel (i.p.), MMAE (i.v.), or ADC h6M24-VcMMAE (i.v.) were administered to tumor-bearing mice respectively, and tumor volume and body weight were measured every 2 to 4 days following the initiation of treatment. […] Tumor volume was calculated according to the following equation: Tumor volume = (tumor length × tumor width^2)/2. TGI (%) was calculated as follows: TGI (%) = [1 – (mean of tumor volume in the treatment group)/(mean of tumor volume in the saline group)] × 100.

MIA PaCa-2 cells = experiment: 72-h cytotoxicity (MTS), MIA PaCa-2; format: cell-based
Experimental: Cells were seeded in wells of a 96-well plate (6000 cells/well) and incubated overnight to allow for cell adherence. On the second day, 100 μL complete medium containing VcMMAE and Sgc8c-M (400, 200, 100, 50, 25, 12.5, and 6.25 nM), as well as MMAE (5, 2.5, 1.25, 0.625, 0.3125, 0.15625, and 0.078125 nM), were added to wells of a 96-well plate for an additional 72-h incubation at 37 °C. At the end of incubation, 100 μL of CellTiter 96® Aqueous One Solution Cell Proliferation Assay (MTS, Promega) solution (prepared by mixing 2 mL MTS with 9 mL of complete medium) were added to each well. The plates were then incubated for an additional 1–2 h to allow for the formation of formazan crystals. The absorbance of each well was measured at 490 nm using a Multi-Mode Microplate Reader (TECAN, SPARK) to assess cell viability. Cell viability was calculated as [OD490 (treatment) - OD490 (blank)]/[OD490 (nontreatment) - OD490 (blank)] × 100%.

TNBC PDX = experiment: Antitumor efficacy, TNBC PDX; format: in vivo, mice; conditions: 10 mg/kg i.p.
Experimental: as §1

SUM159 xenograft = experiment: Antitumor efficacy, SUM159 xenograft; format: in vivo, mice; conditions: 10 mg/kg i.p., Fig. 2c
Experimental: as §1

human PTK7 = biological target: T1, human PTK7 (Homo sapiens, UniProt Q13308); experiment: SPR binding to recombinant human PTK7
T1 construct: His; purchased Sino Biological 19399-H08H
T1 sequence (Q13308 31-704 limits assumed): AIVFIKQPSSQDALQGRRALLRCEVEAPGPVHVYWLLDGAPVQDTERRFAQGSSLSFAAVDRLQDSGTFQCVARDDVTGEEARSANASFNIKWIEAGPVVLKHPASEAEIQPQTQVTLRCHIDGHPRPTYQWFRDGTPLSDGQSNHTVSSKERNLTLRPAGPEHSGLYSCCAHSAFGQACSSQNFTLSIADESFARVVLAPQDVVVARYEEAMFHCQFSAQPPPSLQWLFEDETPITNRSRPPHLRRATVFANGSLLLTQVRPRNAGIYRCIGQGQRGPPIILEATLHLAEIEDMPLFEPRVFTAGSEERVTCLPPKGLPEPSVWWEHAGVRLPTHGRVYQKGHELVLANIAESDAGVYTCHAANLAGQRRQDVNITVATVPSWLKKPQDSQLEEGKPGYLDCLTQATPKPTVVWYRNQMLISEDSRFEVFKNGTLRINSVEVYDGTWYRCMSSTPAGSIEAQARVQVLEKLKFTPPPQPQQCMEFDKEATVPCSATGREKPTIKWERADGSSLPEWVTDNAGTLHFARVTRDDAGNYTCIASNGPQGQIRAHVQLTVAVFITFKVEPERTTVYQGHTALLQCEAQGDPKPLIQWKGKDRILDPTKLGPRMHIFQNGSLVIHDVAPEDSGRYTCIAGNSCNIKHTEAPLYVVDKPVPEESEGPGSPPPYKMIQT
From the text: For SPR analysis, human (#19399-H08H, Sino Biological), mouse (HY-P78761, MCE), rat (HY-P78619, MCE), and cynomolgus monkey (#90979-C08H, Sino Biological) PTK7 proteins with His tags were immobilized on a carboxymethylated dextran CM5 chip on SPR (Cytiva Biacore 8 K). Sodium acetate buffer (NaAC) at pH 5.0/5.5 was used for human and cynomolgus monkey PTK7 proteins, while a pH of 4.5 was applied for mouse and rat PTK7 proteins. His protein was simultaneously immobilized on the CM5 chip as a control using pH 4.5 NaAC. The final concentration of all above proteins was 10 μg/mL. Unreacted carboxyl groups were subsequently deactivated using ethanolamine-HCl. Sgc8c were diluted to 25, 50, 100, 200, and 400 nM in running buffer (DPBS supplemented with 5 mM MgCl2), and Sgc8c-M and Ctrl-M were diluted to 400 nM. Sgc8c, Sgc8c-M, and Ctrl-M were sequentially injected over the immobilized surface from low to high concentrations for a 180-s association phase followed by a 180-s dissociation phase at a flow rate of 10 µL/min. The capture surface was regenerated after each cycle with a 30-s contact time of 1.5 M NaCl at a flow rate of 30 µL/min. The equilibrium dissociation constant (Kd) was subsequently analyzed by Biacore Insight Evaluation software.

PTK7 [2] = biological target: T2, PTK7 (human, UniProt Q13308 31-704); experiment: SPR; 5 mM Mg2+; 400 nM; SPR (Biacore 8K, CM5): DPBS + 5 mM MgCl2, 10 uL/min, 180 s association and dissociation; temperature and pH of running buffer not stated; conditions: protein: commercial; tags: His
T2 sequence: T1 sequence (Q13308 31-704 limits assumed)

PTK7 [3] = biological target: T2, PTK7; experiment: SPR; 5 mM Mg2+; Kd only in figure; SPR (Biacore 8K, CM5): DPBS + 5 mM MgCl2, 10 uL/min, 180 s association and dissociation; temperature and pH of running buffer not stated; conditions: protein: commercial; tags: His
PTK7 [4] = biological target: T3, PTK7 (mouse, UniProt Q8BKG3 23-696); experiment: as above; conditions: protein: commercial; tags: His
T3 sequence: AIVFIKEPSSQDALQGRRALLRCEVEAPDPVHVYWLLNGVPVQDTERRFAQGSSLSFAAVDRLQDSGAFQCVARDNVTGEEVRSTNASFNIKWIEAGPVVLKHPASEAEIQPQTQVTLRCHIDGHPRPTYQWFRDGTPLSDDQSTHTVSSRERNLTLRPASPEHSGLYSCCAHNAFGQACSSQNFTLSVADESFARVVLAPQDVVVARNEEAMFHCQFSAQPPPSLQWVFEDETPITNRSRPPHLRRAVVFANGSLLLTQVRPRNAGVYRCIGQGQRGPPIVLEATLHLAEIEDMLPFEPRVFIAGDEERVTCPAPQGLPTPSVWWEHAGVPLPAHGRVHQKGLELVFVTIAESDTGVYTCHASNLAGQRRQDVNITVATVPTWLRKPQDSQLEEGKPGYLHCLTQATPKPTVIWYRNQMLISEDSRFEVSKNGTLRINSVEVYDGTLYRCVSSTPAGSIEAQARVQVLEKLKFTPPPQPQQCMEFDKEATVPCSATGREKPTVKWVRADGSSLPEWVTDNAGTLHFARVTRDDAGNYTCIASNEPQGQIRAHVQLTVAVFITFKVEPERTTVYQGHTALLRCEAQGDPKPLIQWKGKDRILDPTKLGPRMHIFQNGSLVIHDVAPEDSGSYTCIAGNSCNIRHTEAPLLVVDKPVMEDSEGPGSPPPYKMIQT

PTK7 [5] = biological target: T4, PTK7 (rat, UniProt A0A8I6AKN3 23-696); experiment: as above; conditions: protein: commercial; tags: His
PTK7 [6] = biological target: T2, PTK7; experiment: SPR; 5 mM Mg2+; 400 nM; Kd only in figure; SPR (Biacore 8K, CM5): DPBS + 5 mM MgCl2, 10 uL/min, 180 s association and dissociation; temperature and pH of running buffer not stated; conditions: protein: commercial; tags: His
PTK7 [7] = biological target: T3, PTK7; experiment: as above; conditions: protein: commercial; tags: His
PTK7 [8] = biological target: T4, PTK7; experiment: as above; conditions: protein: commercial; tags: His

For `CC[C@H](C)[C@@H]([C@@H](CC(=O)N1CCC[C@H]1[C@H](OC)[C@@H](C)C(=O)N[C@H](C)[C@@H](O)c1ccccc1)OC)N(C)C(=O)[C@@H](NC(=O)[C@@H](NC)C(C)C)C(C)C` [MMAE, monomethyl auristatin E] (H-[NMeV]V[Dil][Dolaproine]-X1), the mortality ([1]; single administration of 0.16 mg/kg) is listed as 100%, the TGI (MDA-MB-468 xenograft) is listed as 76% and the “IC50 lower than that of Sgc8c-M” value (MIA PaCa-2 cells; MIA PaCa-2) is listed as “approximately 48 fold”. For the same molecule, the IC50 (MIA PaCa-2 cells; MIA PaCa-2, 72-h incubation) was 0.389 nM.

In the case of `CC(=O)O[C@H]1C(=O)[C@@]2(C)[C@H]([C@H](OC(=O)c3ccccc3)[C@]3(O)C[C@H](OC(=O)[C@H](O)[C@@H](NC(=O)c4ccccc4)c4ccccc4)C(C)=C1C3(C)C)[C@]1(OC(C)=O)CO[C@@H]1C[C@@H]2O` [paclitaxel], the “tumor growth compared to saline controls” value (TNBC PDX) is reported as “failed to significantly inhibit tumor growth” and the “tumor growth relative to saline controls” value (SUM159 xenograft) is reported as “partially reduced tumor growth”.

B1: h6M24-VcMMAE: PTK7-targeted ADC (DAR4): antibody of h6M24-vc0101 conjugated with the same MMAE payload (conjugate, chains of the INN, looked up)
VH: QVQLVQSGPEVKKPGASVKVSCKASGYTFTDYAVHWVRQAPGKRLEWIGVISTYNDYTYNNQDFKGRVTMTRDTSASTAYMELSRLRSEDTAVYYCARGNSYFYALDYWGQGTSVTVSS
VL: EIVLTQSPATLSLSPGERATLSCRASESVDSYGKSFMHWYQQKPGQAPRLLIYRASNLESGIPARFSGSGSGTDFTLTISSLEPEDFAVYYCQQSNEDPWTFGGGTKLEIK
modifications: vcMMAE payload, DAR4
Work on B1 yielded a Kd (human PTK7) of 3.18 nM.

B2: Disitamab vedotin: clinically approved ADC, anti-HER2 antibody conjugated with MMAE (conjugate, chains of the INN, looked up)
VH: EVQLVQSGAEVKKPGATVKISCKVSGYTFTDYYIHWVQQAPGKGLEWMGRVNPDHGDSYYNQKFKDKATITADKSTDTAYMELSSLRSEDTAVYFCARNYLFDHWGQGTLVTVSS
VL: DIQMTQSPSSVSASVGDRVTITCKASQDVGTAVAWYQQKPGKAPKLLIYWASIRHTGVPSRFSGSGSGTDFTLTISSLQPEDFATYYCHQFATYTFGGGTKVEIK
modifications: MMAE payload
notes: clinically approved ADC, anti-HER2 antibody conjugated with MMAE
In the case of B2, the mortality ([1]; single injection of 18 mg/kg (approx. 0.35 mg/kg MMAE)) is given as 50%.

AGATTGGCATGTCATAAAAGGGCCGCCGCGTCGTCAATCTA (ssDNA, 3'-C6-S-maleimide MC-VC-PAB-MMAE conjugate) [Ctrl-M]: no binding (PTK7 [2]).

ATCTAACTGCTGCGCCGCCGGGAAAATACTGTACGGTTAGA (structured_DNA) [Sgc8c]: binds (PTK7 [3]); binds (PTK7 [4]); binds (PTK7 [5]).

ATCTAACTGCTGCGCCGCCGGGAAAATACTGTACGGTTAGA (structured_DNA, 3'-C6-S-maleimide MC-VC-PAB-MMAE conjugate) [Sgc8c-M]: binds (PTK7 [6]); binds (PTK7 [7]); binds (PTK7 [8]).
